Assay results published in the supplement of paper PMC9876800.

Tested on: peptide library, one residue held at a place counted from the S/T acceptor
Assay: relative phosphorylation of the sub-library (ratio to the mean residue at this position); higher = residue favoured
Conditions: human
Method in brief: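 Human or orthologue kinase constructs, purified and recombinant, were incubated under kinase-specific conditions in 384-well plates with biotinylated degenerate peptide sub-libraries. Each sub-library fixed one residue at one position around a central Ser/Thr. Incubations lasted 90 min with peptides at 50 μM and 50 μM ATP spiked with γ-32P-ATP, after which spots on streptavidin membranes were phosphorimaged and quantified by densitometry. Relative sub-library phosphorylation is a ratio to the mean residue at that position.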

Sequence of PAK6, construct: aa382-end (Q9NQU5 382-681, looked up): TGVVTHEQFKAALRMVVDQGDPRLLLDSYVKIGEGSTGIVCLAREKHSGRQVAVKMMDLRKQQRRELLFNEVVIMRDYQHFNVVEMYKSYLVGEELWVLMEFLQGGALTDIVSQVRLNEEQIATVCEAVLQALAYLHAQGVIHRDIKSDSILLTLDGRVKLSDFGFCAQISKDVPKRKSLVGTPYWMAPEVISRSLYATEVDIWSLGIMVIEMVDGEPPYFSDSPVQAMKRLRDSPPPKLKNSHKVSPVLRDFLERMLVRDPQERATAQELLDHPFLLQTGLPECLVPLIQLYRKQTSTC
Sequence of PASK, construct: aa949-1323 (Q96RG2 949-1323, looked up): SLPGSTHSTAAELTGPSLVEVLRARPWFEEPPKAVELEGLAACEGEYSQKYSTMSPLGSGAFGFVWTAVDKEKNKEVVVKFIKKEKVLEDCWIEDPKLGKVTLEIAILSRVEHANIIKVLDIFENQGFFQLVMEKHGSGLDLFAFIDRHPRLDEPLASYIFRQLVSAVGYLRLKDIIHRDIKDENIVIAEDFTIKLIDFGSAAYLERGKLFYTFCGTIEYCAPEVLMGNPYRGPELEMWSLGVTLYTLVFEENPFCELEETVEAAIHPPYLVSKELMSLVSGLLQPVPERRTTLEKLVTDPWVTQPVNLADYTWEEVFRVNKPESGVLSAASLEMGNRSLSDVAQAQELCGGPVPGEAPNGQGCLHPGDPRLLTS

PASK, construct: aa949-1323 (from UniProt Q96RG2)
relative phosphorylation
Conditions | at +1 | at +2 | at +3 | at +4 | at -1 | at -2 | at -3 | at -4 | at -5
A fixed | 0.999 | 0.848 | 0.766 | 0.739 | 0.615 | 1.36 | 0.758 | 0.939 | 0.757
D fixed | 1.04 | 2.11 | 1.66 | 1.65 | 1.2 | 0.778 | 0.63 | 1 | 0.896
E fixed | 1.4 | 1.34 | 1.35 | 1.43 | 0.919 | 0.762 | 0.711 | 1.55 | 0.776
F fixed | 1.07 | 0.829 | 1.14 | 0.825 | 0.491 | 0.814 | 0.565 | 0.779 | 0.72
G fixed | 1.11 | 0.967 | 0.808 | 1.03 | 0.746 | 1.19 | 0.864 | 0.804 | 0.811
H fixed | 1.21 | 1.25 | 1.14 | 1.12 | 0.903 | 1.33 | 0.927 | 1.04 | 2.98
I fixed | 0.665 | 0.664 | 0.583 | 0.748 | 0.384 | 0.493 | 0.425 | 0.663 | 0.742
K fixed | 0.944 | 0.698 | 0.956 | 0.853 | 2.22 | 1.42 | 1.34 | 1.39 | 1.33
L fixed | 0.665 | 0.65 | 0.784 | 0.732 | 0.609 | 0.746 | 0.484 | 0.723 | 1.03
M fixed | 0.914 | 0.758 | 0.823 | 0.764 | 0.665 | 0.774 | 0.55 | 0.829 | 0.909
N fixed | 1.09 | 1.49 | 1.03 | 1.08 | 1.59 | 1.16 | 0.623 | 0.995 | 0.884
P fixed | 0.623 | 0.796 | 1.2 | 1.41 | 2.89 | 1.54 | 1.83 | 1.3 | 0.66
Q fixed | 0.932 | 1.14 | 0.996 | 1.07 | 1.07 | 1.08 | 0.764 | 1.05 | 0.788
R fixed | 0.787 | 0.825 | 0.888 | 0.65 | 0.954 | 1.38 | 4.8 | 1.42 | 1.39
V fixed | 0.854 | 0.71 | 0.591 | 0.668 | 0.447 | 0.638 | 0.433 | 0.68 | 0.625
W fixed | 1.26 | 0.953 | 1.25 | 1.05 | 0.53 | 0.704 | 0.664 | 0.944 | 0.927
Y fixed | 1.45 | 0.966 | 1.04 | 1.18 | 0.774 | 0.835 | 0.635 | 0.9 | 0.775
pThr fixed | 3.06 | 2.97 | 2.92 | 2.7 | 1.02 | 1.43 | 1.04 | 1.25 | 1.11
pTyr fixed | 2.5 | 2.53 | 3.07 | 2.25 | 1.58 | 1.41 | 1.28 | 1.98 | 1.59

PAK6, construct: aa382-end (from UniProt Q9NQU5)
relative phosphorylation
Conditions | at +1 | at +2 | at +3 | at +4 | at -1 | at -2 | at -3 | at -4 | at -5
A fixed | 0.845 | 5.4 | 1.16 | 1.06 | 0.921 | 0.523 | 0.766 | 1.19 | 1.21
D fixed | 0.225 | 0.407 | 0.707 | 0.827 | 0.361 | 0.117 | 0.216 | 0.554 | 0.759
E fixed | 0.233 | 0.264 | 1.08 | 0.69 | 0.256 | 0.109 | 0.18 | 0.635 | 0.568
F fixed | 1.37 | 0.835 | 0.986 | 0.672 | 1.12 | 0.626 | 0.638 | 0.778 | 0.855
G fixed | 0.376 | 0.695 | 1.18 | 1.29 | 0.619 | 0.31 | 0.553 | 1.24 | 1.19
H fixed | 0.97 | 0.78 | 1.26 | 1.02 | 1.19 | 1.1 | 0.753 | 0.941 | 0.884
I fixed | 1.56 | 0.752 | 0.887 | 0.623 | 1.14 | 0.767 | 1.11 | 1.33 | 1.41
K fixed | 0.887 | 0.594 | 0.818 | 1.31 | 1.76 | 0.97 | 4.26 | 1.63 | 1.59
L fixed | 1.63 | 0.798 | 1.11 | 0.609 | 1.29 | 0.662 | 0.802 | 0.903 | 1.15
M fixed | 1.44 | 0.706 | 1.05 | 0.786 | 1.09 | 0.461 | 0.655 | 0.943 | 0.875
N fixed | 0.49 | 0.704 | 0.72 | 1.03 | 0.917 | 0.276 | 0.479 | 0.792 | 0.873
P fixed | 0.313 | 0.643 | 1.3 | 1.96 | 0.304 | 0.501 | 0.561 | 0.968 | 0.892
Q fixed | 0.693 | 0.526 | 0.909 | 1.15 | 0.78 | 0.456 | 0.674 | 0.81 | 0.784
R fixed | 1.07 | 0.67 | 0.974 | 1.57 | 2.53 | 8.47 | 3.53 | 1.58 | 1.53
V fixed | 1.61 | 1 | 0.897 | 0.753 | 0.627 | 0.5 | 0.742 | 1.19 | 1.02
W fixed | 1.86 | 0.891 | 0.905 | 0.853 | 0.9 | 0.409 | 0.56 | 0.762 | 0.691
Y fixed | 1.42 | 1.33 | 1.07 | 0.807 | 1.2 | 0.737 | 0.525 | 0.755 | 0.731
pThr fixed | 0.461 | 0.494 | 0.647 | 0.905 | 0.272 | 0.192 | 0.315 | 0.558 | 0.665
pTyr fixed | 0.684 | 0.465 | 0.993 | 0.687 | 0.358 | 0.219 | 0.379 | 0.61 | 0.496
